From patent US20180044406A1 (UNIVERSITY OF ROCHESTER, published 2018)

Target: T1, recombinant His-glucosaminidase (His-Gmd), 6-His tagged 53 kDa glucosaminidase subunit of S. aureus autolysin (Staphylococcus aureus, UniProt A7X0T9 776-1254)
T1 sequence: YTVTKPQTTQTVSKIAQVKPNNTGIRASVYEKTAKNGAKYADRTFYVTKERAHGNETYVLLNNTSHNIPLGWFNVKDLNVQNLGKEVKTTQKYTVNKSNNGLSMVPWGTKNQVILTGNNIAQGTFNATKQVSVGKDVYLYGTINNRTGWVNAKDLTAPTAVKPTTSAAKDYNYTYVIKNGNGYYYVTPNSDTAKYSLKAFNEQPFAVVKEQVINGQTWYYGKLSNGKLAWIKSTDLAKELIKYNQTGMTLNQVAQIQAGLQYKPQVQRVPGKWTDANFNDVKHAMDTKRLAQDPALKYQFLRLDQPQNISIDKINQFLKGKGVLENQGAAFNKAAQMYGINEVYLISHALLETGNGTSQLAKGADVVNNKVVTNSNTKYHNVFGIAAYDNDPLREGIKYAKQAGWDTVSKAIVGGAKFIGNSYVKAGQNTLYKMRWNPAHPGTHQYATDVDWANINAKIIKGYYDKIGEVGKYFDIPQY
Assay: cell-based or functional assay

B1: monoclonal antibody 4A12 (mouse IgG1) (antibody, V domains shown)
VH: QVQLQQPGAELVGPGTSVKLSCKSSGYTFTKYWMHWLKQRPGQGLEWIGVIDPSDSYTNYNQKFKGKATLTVDTSSSTAYLQLSSLTSEDSAVYYCANYYGSYYDVMDFWGQGTSVTVSS
VL: DVQITQSPSYLAASPGETITINCRASKSISKYLAWYQEKPGKTNKLLICFGSTLQSGTPSRFSGSGSGTDFTLTISSLEPEDFATYYCQQHNEYPLTFGAGTKLELKR
Question: For B1, which “fold difference, mouse 4A12 against h4A12, in the minimum concentration able to achieve ~100% inhibition of Gmd activity” value is on record?
Answer: ~3 fold
